{"source": "patent EP4626929A2", "about": "(dated 2025)", "biological_target": "BTLA on human primary B cells (human, UniProt Q7Z6A9 31-289)", "assay": "cell-based or functional assay", "data": [{"binder": "BTLA agonist antibody M10825 (antibody, human IgG2, kappa) heavy: QITLKESGPTLVKPTQTLTLTCTFSGFSLSTSGVGVGWIRQPPGKALEWLAQEFWTGDKRYSPSLKSRLTITKDTSKNQVVLTMTNMDPVDTATYYCTHKLGMNYFDYWGQGTLVTVSSASTKGPSVFPLAPCSRSTSESTAALGCLVKDYFPEPVTVSWNSGALTSGVHTFPAVLQSSGLYSLSSVVTVPSSNFGTQTYTCNVDHKPSNTKVDKTVERKCCVECPPCPAPPVAGPSVFLFPPKPKDTLMISRTPEVTCVVVDVSHEDPEVQFNWYVDGVEVHNAKTKPREEQFNSTFRVVSVLTVVHQDWLNGKEYKCKVSNKGLPAPIEKTISKTKGQPREPQVYTLPPSREEMTKNQVSLTCLVKGFYPSDIAVEWESNGQPENNYKTTPPMLDSDGSFFLYSKLTVDKSRWQQGNVFSCSVMHEALHNHYTQKSLSLSPG light: not shown", "values": [{"measurement": "IC50 of inhibition of human primary B cell proliferation", "result": 10.5, "unit": "nM"}]}]}
